Assays:
MS2 coat protein [1] = experiment: apparent KD of MS2 coat protein, switch ON state; designed switch direction (-1 OFF switch, 1 ON switch): 1; higher = weaker reporter binding; details: FMN input: 0 or 200 uM; Eterna round: R93 (includes R88 designs)
In short: (§1)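 The designed RNA switches were transcribed on-chip from Illumina sequencing clusters. In 100 mM Tris-HCl pH 7.5, 80 mM KCl and 4 mM MgCl2, without or with constant ligand, they were titrated with SNAP-549-labelled MS2 coat protein from 0.7 or 1.5 nM to 3 µM in twofold steps. Apparent KD is the per-design median of normalised cluster binding-curve fits.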

MS2 coat protein [2] = experiment: apparent KD of MS2 coat protein, switch OFF state (with FMN for OFF switches, without FMN for ON switches); designed switch direction (-1 OFF switch, 1 ON switch): 1; higher = weaker reporter binding; details: FMN input: 0 or 200 uM; Eterna round: R93 (includes R88 designs)
In short: as §1

| Sequence | apparent KD of MS2 coat protein (MS2 coat protein [1]) [nM] | apparent KD of MS2 coat protein (MS2 coat protein [2]) [nM] |
| --- | --- | --- |
| AGAUCUAGAAGGUAGGAUAUGUGUAAAAAUACAUGAGGAUCACCCAUGUGAUGAAUAAAAAGAAAAUAGAAGGACCAUCUAGAUC [Cross swing 3] | 16.8 | 119 |
| AGGAAACAUGAGGAUCACCCAUGUAAAAAUAUCACAGGAUAUGGAAACACGAAAGUGAAACCAGAAGGGUGAAAAG [77%, Mat - Mod of Eli, 13] | 13.2 | 32 |
| AGGAAACAUGAGGAUCACCCAUGUAAAAAUAUGGAAGGAUAUGGAAACACGAAAGUGAAACCAGAAGGUCUGAAAA [77%, Mat - Mod of Eli, 20] | 16.6 | 23.3 |
| AGGAAACAUGAGGAUCACCCAUGUAAAAUAAUGGGAGGAUAUGCGAAAAGAAAAAGAAAAGCAGAAGGCCUAAGAA [62%, Something completely different, 4] | 18.6 | 98.6 |
| AGGAAACAUGAGGAUCACCCAUGUAAAUAUGGGCGAGGAUAUCGAAAGAAAAGAAAGAAACGAGAAGGCGCAAAAG [GU on the end] | 49.2 | 295 |
| AGGAAACAUGAGGAUCACCCAUGUAUAAAAAUGGGAGGAUAUACUAAGACGAAAGUCAUAGUAGAAGGCCUAAAAA [76%, Meechl, 8] | 24.3 | 52.6 |
| AGUAAACAUGAGGAUCACCCAUGUGGUGGCCCAUGAGGAUAUCCAUGCGCAAUGCGCAUAGGAGAAGGCAUAGCCA [Enenerla] | 125 | 52.6 |
| AGUCAACAUGAGGAUCACCCAUGUCUGAGGGCAUGAGGAUAUCUAGAUGGGCAGCAUGAUAGAGAAGGCAUGCGCC [Betea] | 185 | 199 |
| AUAAAACAUGAGGAUCACCCAUGUAGAAAUAUGGGAGGAUAUACAAGGACGAAAGUCAAGGUAGAAGGCCUAAAAG [Mat - Same State 1 - Meechl mod - D119] | 25 | 126 |
| AUAAAACAUGAGGAUCACCCAUGUCAGAAAUGGCAAGGAUAUAGAAAAUAAAAAUAAAAACUAGAAGGUGCAAAAU [Meechl SS1 R2 m1] | 74.9 | 198 |
| AUAAAAGAAAGGCAGGAUAUCCAAAGAAAAACAUGAGGAUCACCCAUGUAAAGAAAGAAAAAGUGGGAGAAGGGCCAAAAGAAUA [73%, More Fisker Same State 2, D3, 3] | 25.3 | 27.6 |
| AUAAAUAAAGAUCAGGAUAUUAUAAAGAUAACAUGAGGAUCACCCAUGUAAAACAAAAUUAUGGGUAAGAAGGGAUCAAAUAAAU [SS2 M 20] | 46.9 | 184 |
| AUAAAUAAAGUUAAGGAUAUUAUAAAGAAAACAUGAGGAUCACCCAUGUAAAAGAAAAUAGUGGGUAAGAAGGUAACAAAUAAAU [SS2 M 18] | 23.1 | 42.7 |
| AUAACACAUGAGGAUCACCCAUGUAGAUACAAGUCAGGAUAUGCAACCUCAUGAAAAAAAGCAGAAGGGACAAUAA [SS 1 Tesla 3] | 27.5 | 85.4 |
| AUAACACAUGAGGAUCACCCAUGUAGAUACCCGUCAGGAUAUGCAAAGAAAAUAAACAAAGCAGAAGGGACAAUAA [SS 1 Tesla 2] | 21.2 | 30.4 |
| AUACAAACGUAUGAGGAUAUCCUUAAUAAAACAUGAGGAUCACCCAUGUGAAUAAAAUAACAAUUGGAGAAGGCAUACGUACAAU [Mat - Same state - Malcolm Mod - D137] | 16.6 | 18.9 |
| AUAUAUAUAAGGUAGGAUAUACUAAAGUAAACAUGAGGAUCACCCAUGUAAAGAAAGAAACUCAUGUAGAAGGACCAUAUAUAUAU [Ex 6 sub 1] | 24.8 | 163 |
| AUAUAUAUAAGGUAGGAUAUUCUAAAGUAAACAUGAGGAUCACCCAUGUAAAGAAAGAAACUCAUGGAGAAGGACCAUAUAUAUA [Modifying Tesla's highscorer (77%) - Adding G segment] | 19.9 | 84.8 |
| CAAAACAAAACAUAGGAUAUCAAAACAAAAACAUGAGGAUCACCCAUGUGGAAACAUGAGAAGGAUGAGAAGGAAAACAAAACAA [Meechl SS2 R2 m7] | 25 | 49.6 |

| Sequence | apparent KD of MS2 coat protein (MS2 coat protein [1]) [nM] | apparent KD of MS2 coat protein (MS2 coat protein [2]) [nM] |
| --- | --- | --- |
| CAGAUACAUGAGGAUCACCCAUGUUAGGUAGAACAAGGAUAUCUAGAUAGAUAAAAAUAUAGAGAAGGUGUAUAAC [JR_SS001_Sub207] | 19.8 | 24.2 |
| CAGCGCUGUCGAGAGGAUAUGCGGUGAAGGACAUGAGGAUCACCCAUGUAAGCGAUAGCAUUACGGUAGAAGGCUCUGCAGCUGC [Ceriso] | 95.7 | 143 |
| CAUAGACAUGAGGAUCACCCAUGUAGAAUUAUGGGAGGAUAUACAAAGACGAGAGUCAGAGUAGAAGGCCUAGGAC [salish99-ss1-164] | 18.9 | 28.3 |
| CCGAGGAAGAGAGAGGAUAUCCAAAGGAAAACAUGAGGAUCACCCAUGUAAAAGGUAGGAAAUUGGGAGAAGGCUCAAGAGAGAG [salish99-ss2-072] | 38.7 | 47.1 |
| CCUAGGAAGAGAGAGGAUAUCCAAAGGAAAACAUGAGGAUCACCCAUGUAAAAGGUAGGAAAUUGGGAGAAGGCUCAAGAGAGAG [salish99-ss2-088] | 20.9 | 23.9 |
| CGAAAGGAGAGAGAGGAUAUCCAAAGGAAAACAUGAGGAUCACCCAUGUAGAAGGUAGGAGAUUGGGAGAAGGCUCAAGCAAAAC [salish99-ss2-157] | 15.9 | 18.6 |
| CGAAGACAUGAGGAUCACCCAUGUGGGAUUAUGGGAGGAUAUACAAAGACGAGAGUCAGAGUAGAAGGCCUAGGAC [salish99-ss1-127(!)] | 26 | 33.4 |
| CGAAGACAUGAGGAUCACCCAUGUGGGAUUAUGGGAGGAUAUACAAAGACGAGAGUCAGAGUAGAAGGCCUAGGAU [salish99-ss1-125(!)] | 22.4 | 47.8 |
| CGAGAGGAGAGAGAGGAUAUCCAAAGGAAAACAUGAGGAUCACCCAUGUAGAAGGUAGGAGAUUGGGAGAAGGCUCAAGAAGAAG [salish99-ss2-159] | 18.2 | 26 |
| CGCAAACAUGAGGAUCACCCAUGUCAUUGUGAUCAAGGAUAUGGGUUCCGAAGUGGAACACCAGAAGGUGAGUAGU [Sozaer] | 224 | 497 |
| CGCCAAUUGGCACAGGAUAUGAGCAUGCUCACAUGAGGAUCACCCAUGUGAUUAACAACGCAAUAUCAGAAGGGUGCCCUCAUCA [Leonon] | 50.3 | 33.1 |
| CGCGAACAUGAGGAUCACCCAUGUAGCGGGAAACAAGGAUAUGGGAGGCGAAAUCGCGGAUCAGAAGGUGUAAGCG [Laaratat] | 14.7 | 12.4 |
| CGGAAAGAGAGAGAGGAUAUCCAAAGGAAAACAUGAGGAUCACCCAUGUAGAAGGUAGGAAAUUGGGAGAAGGCUCAAGAGAGAG [salish99-ss2-132] | 25.3 | 26.7 |
| CGGAAGGAGAGAGAGGAUAUCCAAAGGAAAACAUGAGGAUCACCCAUGUAGAAGGUAGGAAAUUGGGAGAAGGCUCAAGAGAGUG [salish99-ss2-121] | 30.2 | 44.6 |
| CGGAAGGAGAGGGAGGAUAUCCAAAGGAAAACAUGAGGAUCACCCAUGUAGAAGGUAGGAAAUUGGGAGAAGGCUCAAGAGAGAG [salish99-ss2-131] | 32.3 | 24.4 |
| CGGAGACAUGAGGAUCACCCAUGUGAGAAGAGGCGAGGAUAUCGAAAGAAAGAAGAGAAACGAGAAGGCGCGAGUC [salish99-SS1-078] | 20.4 | 25 |
| CGGCAAGAGAGAGAGGAUAUCCAAAGGAAAACAUGAGGAUCACCCAUGUAGAAGGUAGGAAAUUGGGAGAAGGCUCAAGAGAGAG [salish99-ss2-135] | 23.2 | 18.4 |
| CGGUAAGAGAGAGAGGAUAUCCAAAGGAAAACAUGAGGAUCACCCAUGUAGAAGGUAGGAAAUUGGGAGAAGGCUCAAGAGAGAG [salish99-ss2-133] | 58.4 | 61.7 |
| CUGGACCUAGGAUAGGAUAUGUGAAUAAUUACAUGAGGAUCACCCAUGUCCAUUUAUAUGGGAACAUAGAAGGGUUUUGGUUAAG [Mat - Same state - Malcolm Mod - D147] | 103 | 164 |

From the supplement of paper PMC9170038
